First the molecules themselves.
B1: SriC12-SriF05: cytochrome P450 SriC12 (SEQ ID NO: 29) co-expressed with ferredoxin SriF05 (SEQ ID NO: 30), native coding sequence (protein, listed as Streptomyces rimosus)
chain 1: MTEALPFPQDRTCPYDPPAGYQPLRDSRPLSRVTLYDGRPAWVVTGHAESRALLTDPRLSADRQNPAFPSPAPRFETLRKVRTPLLGVDDPEHNTQRRMLIPSFSVKRAAALRPRIQEIVDRLLDAMEQQGPPAELVSAFALPVPSMVICALLGVPYADHELFEGLSRTLLQSADPQEVTEARDKLEDYFTALVERKRKEPGDGLLDELIAERLDSGELGHRELVRMAMLLLVAGHETTSNMLSLGTFTLLEHPEQFAALRADPSLLPAAVEELLRFLSIADGMVRVATEDIEIGGVTIRADDGVIFSTSVVNRDGAAYASPDTLDWERSARHHVAFGFGVHQCLGQNLARAEMEIAFGALFARFPGLRLAVPAAEIPVKPAHALQGLVELPVTW
chain 2: MKIDIDTSVCIGSGQCVLTAPGVFTQDDDGFSTLLPGREDGTGDPLVREAARACPVQAIAVTDD
B2: Mutant 14 L230I: L230I mutant of codon optimised cytochrome SriC12, SEQ ID NO: 237 (protein)
chain: MTEALPFPQDRTCPYDPPAGYQPLRDSRPLSRVTLYDGRPAWVVTGHAESRALLTDPRLSADRQNPAFPSPAPRFETLRKVRTPLLGVDDPEHNTQRRMLIPSFSVKRAAALRPRIQEIVDRLLDAMEQQGPPAELVSAFALPVPSMVICALLGVPYADHELFEGLSRTLLQSADPQEVTEARDKLEDYFTALVERKRKEPGDGLLDELIAERLDSGELGHRELVRMAMILLVAGHETTSNMLSLGTFTLLEHPEQFAALRADPSLLPAAVEELLRFLSIADGMVRVATEDIEIGGVTIRADDGVIFSTSVVNRDGAAYASPDTLDWERSARHHVAFGFGVHQCLGQNLARAEMEIAFGALFARFPGLRLAVPAAEIPVKPAHALQGLVELPVTW
modifications: L230I mutant of SriC12
B3: Mutant 10 L171I: L171I mutant of codon optimised cytochrome SriC12, SEQ ID NO: 235 (protein)
chain: MTEALPFPQDRTCPYDPPAGYQPLRDSRPLSRVTLYDGRPAWVVTGHAESRALLTDPRLSADRQNPAFPSPAPRFETLRKVRTPLLGVDDPEHNTQRRMLIPSFSVKRAAALRPRIQEIVDRLLDAMEQQGPPAELVSAFALPVPSMVICALLGVPYADHELFEGLSRTLIQSADPQEVTEARDKLEDYFTALVERKRKEPGDGLLDELIAERLDSGELGHRELVRMAMLLLVAGHETTSNMLSLGTFTLLEHPEQFAALRADPSLLPAAVEELLRFLSIADGMVRVATEDIEIGGVTIRADDGVIFSTSVVNRDGAAYASPDTLDWERSARHHVAFGFGVHQCLGQNLARAEMEIAFGALFARFPGLRLAVPAAEIPVKPAHALQGLVELPVTW
modifications: L171I mutant of SriC12
B4: SriC20: cytochrome P450 from Streptomyces rimosus NRRL-2234, SEQ ID NO: 47 (protein, listed as Streptomyces rimosus)
chain: MPEIIDLGAYGPDFVADPHPYYAKLRAQGPVHRVRAPEMEPEFPQAWLIVGYDEARAVLADNRFAKDWSRANGSLADSEVLAEWQLMNMLDADPPQHTRLRKLVAREFTTRRVEALRPRVQQITDELLDAMLAAPDGRADLVEALAFPLPMTVICELLGVPDIERDTFRAWSNELVSPTDNEATMTAAREMAAYLDGLIESKRSSPGEDLLSALVRTSDEDGDQLSRQELLGMAFLLLVAGHETTVNLISNGVRALLQHPAQLAALRADPSLLDNAVEEMLRYDGPVETATWRFTAEPVGIGGVEIPAGEIVLVGLAGADRDPERFEAPDTFDITRETRGHVAFGHGIHFCLGAPLARVEGRIAVRTLLDRCPDLALDTAPEALTWRAGMTIRGPQHLPVRWR
B5: SriC01: cytochrome P450 from Streptomyces rimosus NRRL-2234, amino acid sequence SEQ ID NO: 2 (protein, listed as Streptomyces rimosus)
chain: MTETIPFEAVDGAVRPSEEVPVVDLSATGLSDTPLQQAMGLAREHGAVYRRRLHGHEALLVSSLELVTELADENRFAKGVSVALENVREFAGDGLFTAYNDEPNWAKAHDILMPAFALGSMRTYHPAMLKVARRVIGSWDRRAADGTPVDVPDDMTRMTLDTIGLAGFGFDFESFSRATMHPFVEAMVRCLEWSMKRLGREPDGDYTEEDAAFRADADYLASVVDEVIASRTGADGTPGEEAGDDLLGLMLGATHPADGTTLDLANIRNQVITFLIAGHETTSGALSFALYHLLKDPAALRLAQREADELWGDQTDPDPSFEDIGRLPYTRQVLNEALRLWPTAAAFSRQARTDTLLGGRIPLKAGQLVTVLTPMLHRDPAWGDNPELFDPTRFAPEAEAARSPHAYKPFGTGERACIGRQFALHEATMLLAMLVHRYRLIDHSDYRLSIKETLTLKPDGFTLTLARRTPADRAGLRAALAVLPGGAAEPDGTESGTDDGLPTRVRQDTALLLLHGTNYGTCRDFAERIADEATGLGFTTEVAPLDAATGALPTDRPVVIVTASYNGQPTDDAARFVEWLSGDEARAEGVPYAVLGVGDRNWAATYQRVPTLLDERLAALGAERLLPRGEADASGDLNGAVKAFTATLRTELLVRYGDPATIGASTPADATDASYTVREVTGGPLDALAARHGLQPMTVTEAYDLTAPGYPRVKRFLRLTLPEGVTYRTADHLAVLPANGAAAVERAAQVLGVSLEAVLDIRAGAGRGGRDTLPVDRPLTVRQLLTHHLELNARPTAAQRAVLADHNPCPPERAALQAIPDDDPRTTLDLIEEHPALRGVLPWPVLLDLLPALRIRHYSLSSSPAADPRHADLMVSLLPGGTGSGHLHTLRPGDTVLARVQPCREAFRLDPADPTPVILVAAGTGLAPFRGAVADRLAATQLAPALLYFGCDALEADYLHAEELQAAEAAGAVSLRPAFSARPVDGCRYVQHRIAAEAEEVGALLDAGARVYVCGDGNRMAPGVRAAFRELYAARTGATQEEAEVWLRELTAAGRYVEDVYVTG
B6: SriC14-SriF06: cytochrome P450 SriC14 (SEQ ID NO: 34) with ferredoxin SriF06 (SEQ ID NO: 35) (protein, listed as Streptomyces rimosus)
chain 1: MTETSTAFPAQDAPAFPSDRTCPYGLPETYARLRDSEDALRPVTLFDGRTAWVVTKHETARTLLADPRLSSNRTHPDFPLTSPRLAGLRDRRPAFISMDPPEHGPRRRMTISEFTVKRIKGMRPDIERIVHGFLDEMLAAGPPADLVSRFALPVPSMVICQLLGVPYADHDFFQDASRRLVQSTSAEEATGARDDLERYLDGLITTLESEPGPGLLGALVTRQLADGAIDRDELISNALLLLVAGHETTASMTSLSVITLLEHPEQHAALRDDPSLIPGAVEELLRYLAIADVAGARVATADIEVDGQVIRAGEGVIVVHSIANRDAGVFENPDTFDIHRSARHHLSFGYGVHQCLGQNLARLELEIILSALFERIPTLRLATPVERLTLRPGSTIQGVNELPVTW
chain 2: MHVTADRDVCVGAGMCALTAPGVFDQDDDGLVTVLTSDIGENDRDAVREAGMLCPSGALRVTE
B7: SriC22: cytochrome P450 from Streptomyces rimosus NRRL-2234, SEQ ID NO: 51 (protein, listed as Streptomyces rimosus)
chain: MTTSPTESTTATPPDSTTASAPGTPPDALPSYVGLHPGEPNVMEPELLNDPYAGYGKLREQGALVRGRFLDDSPVWLVTRFDVVREVMRDPRFINNPSRLPGRTEKDPRAQLIELFGIPDHMARYLVDTILTSDPPDHTRLRRLVSRAFTARRIQDLRPRVEAITDELLDRLPAHAQDGVVDLVEHFAYPLPITVICELVGIDEEDRPLWRQFGADLTSLEPKRIGATVPAMVEHIHKVIGERQSALRDDLLSALIRARDDDGGRLSETEMVTMVLTLVLAGHETTAHLISNGTLALLTHPDQRRLLTEDPGLLPRAVHELMRWCGPIQATQLRYASEDVEVAGTQVHKGDALMFSLVAANHDPRHYTEPEKLDLTRQPAGRAEDHVGFGHGMHYCLGASLARQEGEVAFGKLLARYPEVALALPHEQLEEQERIRQPGSWRLRRLPLRLRPED
B8: SriC51-SriF08: cytochrome P450 SriC51 (SEQ ID NO: 109) with ferredoxin SriF08 (SEQ ID NO: 110) (protein, listed as Streptomyces rimosus)
chain 1: MTTADTMPLAYPFNDADGLALSETYEQVRDRPGLLRVQMAYGEPAWLATRYADARLVLGDRRFSRAEGLERDEPRQSEGQRDSGILSMDPPDHTRLRTLVAKAFTVHQVEKLRPWVRELTHGLIDELEAAGPPVDLVDRYALPIPVAVICRMLGVPEEDRPKFRTWSDAALSTSSLTAEEFEANREELRAYMAKLIEDHRTTPRDDLMTRLIEARDVGDRLSELELIDLCVGILVAGHETTATQIPNFVLSLLDHPGELERLRAEPALIKSAVEELLRFVPLGSGAGFPRYATEDIEVGGTLVRAGEPVLVAVGAANRDALRFDEPGTLNITRDGNQHLGFGHGVHHCLGAPLARLELQEALIALITRFPKLHVAGDVVWKDQMLVRGPRVMPVGW
chain 2: MTWKAAIDGQQCMASGMCAGIAPDLFVLDGPHARPLQEEIPEDEAALDAADSCPAMAILIRDGEKVVGPRP

The first data set is described as follows: Concentration of cytochrome P450 in cell-free extract by carbon monoxide difference spectrum (Omura and Sato). The note with it: effect of codon optimisation, expressed in E. coli BL21 (DE3), value ± SD. How it is done: Measurement is performed according to the method of Omura and Sato et al. (J Biol Chem, 239. 1964, 2370). That is to say, cytochrome P450 is analyzed quantitatively using the following formula, based on the difference in the absorbance of the reduced CO versus the reduced difference spectrum at 450 nm and 490 nm.
Measurement of the concentration of cytochrome P450 were performed according to the method of Omura and Sato et al. (J Biol Chem, 239. 1964, 2370). Cytochrome P450 concentrations of cell-free extracts of induced E. coli BL21 (DE3) Rosetta2 & Tuner cells harbouring either pHD05-SriC01, pHD02-SriC12-SriF05, pHD05-SriC14-SriF06, pHD05-SriC20, pHD05-SriC22 or pHD05-SriC51-SriF08 are shown in Table 2. Carbon monoxide difference spectra for P450SriC01, P450SriC12, P450SriC14, P450SriC20, P450SriC22 and P450SriC51 are shown in FIGS. 9, 10, 11, 19, 20 & 21 respectively.
The native and codon optimised P450sriC12 and ferredoxinsriF05 in pHD02-SriC12-SriF05 and pHD02-SriC12CO-SriF05CO respectively were introduced into E. coli BL21 (DE3). The recombinant strains were cultured and proteins were induced as in Example 2. The cell-free extract material was obtained as in Example 3 and carbon monoxide difference spectrums were measure to calculate the concentration of cytochrome P450.
The resulting plasmids containing the new mutants genes were transformed into recombinant E. coli strains for expression as described in Example 1, cultured and induced as described in Example 2, extracted and processed as described in Example 3 and tested for biocatalytic activity as described in Example 5 above. The carbon monoxide difference spectrum result of R63W mutant of codon optimised P450SriC12 is shown in FIG. 14 and the cytochrome P450 concentration of mutant P450SriC12 are shown in Table 5.
The molecule B1 had a P450 concentration of 3.6 ± 0.3 µM.

The same data set, now with this note: mutant P450SriC12 expressed in E. coli BL21 (DE3).
B2 displayed a P450 concentration of 3.5 µM. Same read-out and setting: as for B3, the figure is 12.4 µM.

Still in this data set, the particulars now being: native enzymes expressed in E. coli BL21 (DE3) Rosetta2 & Tuner cells, cell-free extract.
B1: the P450 concentration was determined as 3.6 µM.

For B4, the P450 concentration was found to be 18.8 µM.

B5 gave a P450 concentration of 33.5 µM. For B6, the P450 concentration worked out at 15.4 µM. Molecule B7 registered a P450 concentration of 18.4 µM. The same measure, in the same setting: as for B8, the figure is 25.0 µM.
